Laboratory results taken from patent publication US20230181729A1 (IMMATICS BIOTECHNOLOGIES, published 2023).

Target: HLA-A*02/PRAME-004 presented on cells (PRAME-004-loaded T2 cells or PRAME-004-positive tumor cell lines) (human)
Assay: cell-based or functional assay

| EC50 of IFNγ release by CD8+ T cells re-expressing the TCR; T2 cells loaded with PRAME-004 (10 µM to 10 pM) | Binder |
| --- | --- |
| ~1 µM | TCR R16P1E8 (TCR, V domains shown) V domain 1: QKEVEQDPGPLSVPEGAIVSLNCTYSNSAFQYFMWYRQYSRKGPELLMYTYSSGNKEDGRFTAQVDKSSKYISLFIRDSQPSDSATYLCAMSEAAGNKLTFGGGTRVLVKP V domain 2: EAGVAQSPRYKIIEKRQSVAFWCNPISGHATLYWYQQILGQGPKLLIQFQNNGVVDDSQLPKDRFSAERLKGVDSTLKIQPAKLEDSAVYLCASSYTNQGEAFFGQGTRLTVVE |
| 1.83 nM | TCR R17P1D7 (TCR, V domains shown) V domain 1: QTVTQSQPEMSVQEAETVTLSCTYDTSESDYYLFWYKQPPSRQMILVIRQEAYKQQNATENRFSVNFQKAAKSFSLKISDSQLGDAAMYFCAYRWAQGGSEKLVFGKGTKLTVNP V domain 2: DIYQTPRYLVIGTGKKITLECSQTMGHDKMYWYQQDPGMELHLIHYSYGVNSTEKGDLSSESTVSRIRTEHFPLTLESARPSHTSQYLCATELWSSGGTGELFFGEGSRLTVLE |
